Target: T1, nuclear distribution protein nude-like 1 (M17 neuroblastoma cells) (human (endogenous in SK-N-BE(2)-M17), UniProt Q9GZM8 1-345)
T1 construct: nuclear distribution protein nudE-like 1, endogenous in SK-N-BE(2)-M17 cells; also called NDEL1; source: endogenous, SK-N-BE(2)-M17 neuroblastoma cells (fixed cells)
T1 sequence (looked up): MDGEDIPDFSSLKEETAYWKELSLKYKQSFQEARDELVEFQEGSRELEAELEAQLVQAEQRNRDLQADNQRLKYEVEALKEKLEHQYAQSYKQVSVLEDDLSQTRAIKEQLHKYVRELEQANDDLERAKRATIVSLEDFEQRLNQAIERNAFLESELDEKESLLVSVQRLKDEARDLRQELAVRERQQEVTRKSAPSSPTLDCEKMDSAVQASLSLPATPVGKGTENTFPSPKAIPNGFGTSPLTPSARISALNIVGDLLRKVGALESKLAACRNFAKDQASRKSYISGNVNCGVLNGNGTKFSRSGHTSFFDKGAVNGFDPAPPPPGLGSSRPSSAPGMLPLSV
Assay: proximity ligation; fixed M17 cells stably expressing V5-tagged 14-3-3θ S232A or S232D; anti-V5 with anti-NDEL1 or anti-BCR antibody; DuoLink probes; objects per area, normalised
Settings: partners not purified

fold PLA signal against S232D: ~2 fold
B1: V5-tagged 14-3-3θ S232A (natural protein, UniProt P27348 1-245, looked up)
chain: MEKTELIQKAKLAEQAERYDDMATCMKAVTEQGAELSNEERNLLSVAYKNVVGGRRSAWRVISSIEQKTDTSDKKLQLIKDYREKVESELRSICTTVLELLDKYLIANATNPESKVFYLKMKGDYFRYLAEVACGDDRKQTIDNSQGAYQEAFDISKKEMQPTHPIRLGLALNFSVFYYEILNNPELACTLAKTAFDEAIAELDTLNEDSYKDSTLIMQLLRDNLTLWTSDAAGEECDAAEGAEN
notes: 14-3-3 protein theta with S232A; also called V5-14-3-3θ phospho-mutant S232A; source: SK-N-BE(2)-M17 cells, stably transfected (fixed cells)
